B1: DnaJ homolog subfamily C member 5, residues 16 to 77; numbered along this chain, Q9H3Z4 (parent)
chain: LYHVLGLDKNATSDDIKKSYRKLALKYHPDKNPDNPEAADKFKEINNAHAILTDATKRNIYD

± gives the uncertainty stated by the source.

In the data set the parent is B1. The data set can be described thus: abundance fitness (aPCA) (normalised: wild type 0, dead -1); higher = more abundant; growth selection in yeast, the domain comes from the species named. To be noted: Homo sapiens.
Take LYHVLGLDKLATSDDIKKSYRKLALKYHPDKNPDNPEAADKFKEINNAHAILTDATKRNIYD [N10L]: the abundance fitness is -0.342 ± 0.075.
In the case of LYHVLGLDKTATSDDIKKSYRKLALKYHPDKNPDNPEAADKFKEINNAHAILTDATKRNIYD [N10T] it was -0.073 ± 0.13; in that of LYHVLGLDKRATSDDIKKSYRKLALKYHPDKNPDNPEAADKFKEINNAHAILTDATKRNIYD [N10R], -0.464 ± 0.068; in that of LYHVLGLDKFATSDDIKKSYRKLALKYHPDKNPDNPEAADKFKEINNAHAILTDATKRNIYD [N10F], -0.371 ± 0.11.
With LYHVLGLDKVATSDDIKKSYRKLALKYHPDKNPDNPEAADKFKEINNAHAILTDATKRNIYD [N10V], the abundance fitness is -0.711 ± 0.069.
In the case of LYHVLGLDKQATSDDIKKSYRKLALKYHPDKNPDNPEAADKFKEINNAHAILTDATKRNIYD [N10Q] it was -0.266 ± 0.087.
For LYHVLGLDKSATSDDIKKSYRKLALKYHPDKNPDNPEAADKFKEINNAHAILTDATKRNIYD [N10S], the abundance fitness was -0.142 ± 0.078.
In the case of LYHVLGLDKIATSDDIKKSYRKLALKYHPDKNPDNPEAADKFKEINNAHAILTDATKRNIYD [N10I] it was -0.741 ± 0.16; in that of LYHVLGLDKHATSDDIKKSYRKLALKYHPDKNPDNPEAADKFKEINNAHAILTDATKRNIYD [N10H], -0.493 ± 0.28.
On to LYHVLGLDKWATSDDIKKSYRKLALKYHPDKNPDNPEAADKFKEINNAHAILTDATKRNIYD [N10W], for which the abundance fitness is -0.4 ± 0.068.
The figure for LYHVLGLDKPATSDDIKKSYRKLALKYHPDKNPDNPEAADKFKEINNAHAILTDATKRNIYD [N10P] is -0.818 ± 0.14; for LYHVLGLDKDATSDDIKKSYRKLALKYHPDKNPDNPEAADKFKEINNAHAILTDATKRNIYD [N10D] it is -0.343 ± 0.15; for LYHVLGLDKEATSDDIKKSYRKLALKYHPDKNPDNPEAADKFKEINNAHAILTDATKRNIYD [N10E] it is -0.343 ± 0.098.
In the case of LYHVLGLDKYATSDDIKKSYRKLALKYHPDKNPDNPEAADKFKEINNAHAILTDATKRNIYD [N10Y] it was -0.796 ± 0.22; in that of LYHVLGLDKAATSDDIKKSYRKLALKYHPDKNPDNPEAADKFKEINNAHAILTDATKRNIYD [N10A], -0.293 ± 0.062.
The figure for LYHVLGWDKNATSDDIKKSYRKLALKYHPDKNPDNPEAADKFKEINNAHAILTDATKRNIYD [L7W] is -0.949 ± 0.096; for LYHVLGYDKNATSDDIKKSYRKLALKYHPDKNPDNPEAADKFKEINNAHAILTDATKRNIYD [L7Y] it is -1.01 ± 0.22.
Take LYHVLGVDKNATSDDIKKSYRKLALKYHPDKNPDNPEAADKFKEINNAHAILTDATKRNIYD [L7V]: the abundance fitness is -0.103 ± 0.075.
In the case of LYHVLGLDVNATSDDIKKSYRKLALKYHPDKNPDNPEAADKFKEINNAHAILTDATKRNIYD [K9V] it was -0.004 ± 0.073.
In the case of LYHVLGLDRNATSDDIKKSYRKLALKYHPDKNPDNPEAADKFKEINNAHAILTDATKRNIYD [K9R] it was -0.116 ± 0.065; in that of LYHVLGLDENATSDDIKKSYRKLALKYHPDKNPDNPEAADKFKEINNAHAILTDATKRNIYD [K9E], 0.007 ± 0.07; in that of LYHVLGLDFNATSDDIKKSYRKLALKYHPDKNPDNPEAADKFKEINNAHAILTDATKRNIYD [K9F], -0.281 ± 0.11.
The figure for LYHVLGLDQNATSDDIKKSYRKLALKYHPDKNPDNPEAADKFKEINNAHAILTDATKRNIYD [K9Q] is -0.25 ± 0.17; for LYHVLGLDMNATSDDIKKSYRKLALKYHPDKNPDNPEAADKFKEINNAHAILTDATKRNIYD [K9M] it is -0.458 ± 0.087.
As for LYHVLGLDGNATSDDIKKSYRKLALKYHPDKNPDNPEAADKFKEINNAHAILTDATKRNIYD [K9G], the abundance fitness was -0.215 ± 0.08.
LYHVLGLDTNATSDDIKKSYRKLALKYHPDKNPDNPEAADKFKEINNAHAILTDATKRNIYD [K9T]: the abundance fitness is -0.27 ± 0.091.
As for LYHVLGLDNNATSDDIKKSYRKLALKYHPDKNPDNPEAADKFKEINNAHAILTDATKRNIYD [K9N], the abundance fitness is -0.394 ± 0.16.
As for LYHVLGLDPNATSDDIKKSYRKLALKYHPDKNPDNPEAADKFKEINNAHAILTDATKRNIYD [K9P], the abundance fitness is -0.252 ± 0.096.
For the variant LYHVLGLDHNATSDDIKKSYRKLALKYHPDKNPDNPEAADKFKEINNAHAILTDATKRNIYD [K9H], the abundance fitness is -0.341 ± 0.19.
As to LYHVLGLDCNATSDDIKKSYRKLALKYHPDKNPDNPEAADKFKEINNAHAILTDATKRNIYD [K9C], the abundance fitness was -0.246 ± 0.14.
In the case of LYHVLGLDANATSDDIKKSYRKLALKYHPDKNPDNPEAADKFKEINNAHAILTDATKRNIYD [K9A] it was 0.077 ± 0.082; in that of LYHVLGLDINATSDDIKKSYRKLALKYHPDKNPDNPEAADKFKEINNAHAILTDATKRNIYD [K9I], -0.099 ± 0.19; in that of LYHVLGLDSNATSDDIKKSYRKLALKYHPDKNPDNPEAADKFKEINNAHAILTDATKRNIYD [K9S], -0.125 ± 0.076.
LYHVLGLDWNATSDDIKKSYRKLALKYHPDKNPDNPEAADKFKEINNAHAILTDATKRNIYD [K9W]: the abundance fitness is -0.499 ± 0.094.
Regarding LYHVLGLDYNATSDDIKKSYRKLALKYHPDKNPDNPEAADKFKEINNAHAILTDATKRNIYD [K9Y], the abundance fitness was -0.163 ± 0.18.
The figure for LYHVLGLDDNATSDDIKKSYRKLALKYHPDKNPDNPEAADKFKEINNAHAILTDATKRNIYD [K9D] is -0.05 ± 0.14.
In the case of LYHVLGLDKNATCDDIKKSYRKLALKYHPDKNPDNPEAADKFKEINNAHAILTDATKRNIYD [S13C] it was -0.215 ± 0.12; in that of LYHVLGLDKNATADDIKKSYRKLALKYHPDKNPDNPEAADKFKEINNAHAILTDATKRNIYD [S13A], -0.116 ± 0.082.
Regarding LYHVLGLTKNATSDDIKKSYRKLALKYHPDKNPDNPEAADKFKEINNAHAILTDATKRNIYD [D8T], the abundance fitness is -0.309 ± 0.088.
In the case of LYHVLGLRKNATSDDIKKSYRKLALKYHPDKNPDNPEAADKFKEINNAHAILTDATKRNIYD [D8R] it was -0.44 ± 0.066; in that of LYHVLGLYKNATSDDIKKSYRKLALKYHPDKNPDNPEAADKFKEINNAHAILTDATKRNIYD [D8Y], -0.421 ± 0.1; in that of LYHVLGLWKNATSDDIKKSYRKLALKYHPDKNPDNPEAADKFKEINNAHAILTDATKRNIYD [D8W], -0.648 ± 0.086.
In the case of LYHVLGLFKNATSDDIKKSYRKLALKYHPDKNPDNPEAADKFKEINNAHAILTDATKRNIYD [D8F] it was -0.533 ± 0.11.

Values taken from the Human Domainome abundance scans (Beltran et al. 2025).
